Source: the DeepSol protein solubility set

Experiment: soluble on expression in E. coli; label from the status in PepcDB or PDB records

Sequence	soluble on expression in E. coli
ATEPFMKGRVKLLPDILPGKNKDHEFEALVSTIQDMSLKMMELMVERPPRELILSMRRNKNPMYQINFASANISTSIAVKQELLEISKMKDRGYRLLYLLHKELQVMELKASIQMKTREEMDKQQKEYFLQQQIKTIQEELGGNINDIEVQELRTKAATMKWSSEVAETFEKELRKLERLHPQSPDYSVQMQYVQTIISLPWGVFSKDNFNLKRAQSVLDRDHFGLEKVKERIIEHLAVLKMKGDMKSPIICLYGPPGVGKTSLGKSIAESLGRKYVRISLGGLHDEAEIRGHRRTYIGAMCGRIIQSLQRAGTSNPVFVLDEIDKIDSDYKGDPSSALLEVLDPEQNNAFHDNYLDIDFDLSHVLFIATANSLSSISRPLLDRMELIDV	not soluble
SNAMHILVTGFAPFDNQNINPSWEAVTQLEDIIGTHTIDKLKLPTSFKKVDNIINKTLASNHYDVVLAIGQAGGRNAITPERVAINIDDARIPDNDDFQPIDQAIHLDGAPAYFSNLPVKAMTQSIINQGLPGALSNSAGTFVCNHTLYHLGYLQDKHYPHLRFGFIHVPYIPEQVIGKPDTPSMPLEKIVAGLTAAIEAISNDEDLHLALGTTE	soluble
SKIASFDVDAQKGFTPLCPDELPVPGGDAIGGALNQLASRAALRLGSKDAHSPKAAWVVESAEQMLRPLAYPDADLTWVSHCVPGTPGFELLDELPRPIDYDFFVWKGVEPDLHPYGACYHDLAERRSTGVIEYLRQNGVSHVLVGGLALDYCVKNTALQLRRAGFEVLLYLPACRAIAEDTAQRACDEMRDAGVILCADLERLDSALA	not soluble
MLMSVFHNWLLEIACENYFVYIKRLSANDTGATGGHQVGLYIPSGIVEKLFPSINHTRELNPSVFLTAHVSSHDCPDSEARAIYYNSAHFGKTRNEKRITRWGRGSPLQDPENTGALTLLAFKLDEQGGDCKEVNIWVCASTDEEDVIETAIGEVIPGALISGPAGQILGGLSLQQAPVNHKYILPEDWHLRFPSGSEIIQYAASHYVKNSLDPDEQLLDRRRVEYDIFLLVEELHVLDIIRKGFGSVDEFIALANSVSNRRKSRAGKSLELHLEHLFIEHGLRHFATQAITEGNKKPDFLFPSAGAYHDTEFPVENLRMLAVKTTCKDRWRQILNEADKIHQVHLFTLQEGVSLAQYREMRESGVRLVVPSSLHKKYPEAVRAELMTLGAFIAELTGLYADIP	soluble
MSELDTVIKNAEEIAIQEDEEIIEEVIEEEQVPWLGPTDVMEGQGEYYQSEELLEHEMVEYEDAEPYQSFLPIRDGAPYFSLNLPDLLSKAHQITQDTGVIVRLTSCFNKKCQRQVACGGCLYTIKDYVSDIQWNNWTCINPQCFGEIRTTPDFRDIREVHGHTANCPPPDEIQIAVRIAVYDTRLLAEFTDTPLENLYFGAVERLKIDCADGFVLFPPFEVVKSTLEDHRHNKIYRKRFEMQNLRDKQRKMNMTPDEVVFAENTSGMIRFRRTKPFPMSICNVCGEEISSTNLPSQDQLISHYMYTHGRRMTIERYEFKDVNTFEQYLRELNSMGKYKFKRMGLADENMFYLCSHDDRLNKTGIGRATRLQQQSCHCTAFIRVFDWRVRWKLNNLNYEQITKKSDIYTFNAVCKVEDMCMSLLNRLQDCQNPRVALGYREKIAAIVRKSTTDPGLCDEKSVEEIEKSWVLQKPIRGRPRKRVKLENGQEDGGGDLDEDDDVVMDDYEDGEENGDKKITASRRSESPKPASSSSEPPPPSTTEEASTSLADELPRVTREESTSSNTSGHVAGDVTTRSGRARKPPARLLDD	not soluble
MGSDKIHHHHHHMSKWLNVGKIVNTHGVRGEVRVLSTTDFEDDRFSSGKTLYVMRPNQNERVAVTVASHRKHKNFDLLCFEGYPSINDVEAFKGGRLQVPIEDRPELGEGEFFYHEIIGCSVVTIAGEELGKVKEILSPGANDVWVVQCRRGGKDLLIPYIEQVVKQVDLEKQQITIEPMEGLLE	not soluble
MGSDKIHHHHHHVEQAQLDEYLDRFQLTDVFAGGLREHLQPVAFQAGDWLCRQGDAADRMYLLLEGKLKITHMSATGKRLVLSFKHPFDLVGDIEYVRRTPLMNTVEAVTPVKAVSISYAALEQKGADNPALLRFLLETITMKFELKSHSMSFNLLYPVEVRLASYLLSMTPETPTLPVSDLVDAADLIGTSYRHLNRVLRQFSQDNLIERTNRTITIIDREGLTERVGESIYE	not soluble
MKIFLDSAITTDIQDRLATEIIDGVTTNPTLIKKSNEDPDVVYKELYDMRVKDISIEVRGDTAQELAANGILYGRKYGEVATIKLPCTVEGIKACKKLSILGHKTNMTLVFSVSQAILCAKAGATYVSPFVGRLDQIGEDGIQLIRDISRVYCVSGVKTQILAASIRSPKQAEDAYLAGADICTLPVKVFDQMFKHTLTDDGLKQFAIDFGINF	not soluble
MDLSALREDFPLFAQRPELVYLDSAATSQKPRRVIEALRRYYETLNANVHRGAYRLSAEATEAYEEARRRLARFLNAEPKEIVFVRNTTEAMNLVAYAWGLRNLKEGDEVLVTEMEHHAGLVPWHLVAGLTGAKVKAIPLTEEGRLDLSALEDLLTERTRVVSLVHMSNVLGTINPVAEIARRAKEAGALVVVDGAQSAPHLPVDVKALGADFFALSGHKMLGPTGAGVLWGRYEVLEGMMPFLGGGEMILEVHVDRSTYAPPPQRFEAGTPPIAEAIALGEAACYLMEVGMEKVFAHDRALLDYALKRLEEVPRLRVYGPKGLDRGGVIPFTLGRLHAHDLATFLDQEGIAVRAGHHCAQPLHRKLGLAATARASFYLYNTKEEVDRFVEALLRIEAKYRAWL	soluble
MSRKKFMESVGATCSNWNWSWSFVNHEERFVVFGHWDVHKDGLIFDESWKGPGRKQSLEHISLIQNNGYRLKTFPMQYDQTETGTAKIKSFDWILEEKHLAGVDGLWYALNYSESVDITSIEEVVHPETYIEGATKEISVNAYERNPDARAKCILHYGCKCYVCKFDFQEVYGDIGKGFIHVHHEVSLAEIKKEYSVDPIKDLKPLCPNCHGIIHRTHPPISVDSLINLLRSRNLEHHHHHH	soluble
MESEQCPVGKIPHIRMDDGAGIEEFYTFGRILGQGSFGMVFEAIDKETGAKWAIKKVNKEKAGSSAMKLLEREVSILKTVNHQHIIHLEQVFESPQKMYLVMELCEDGELKAVMDQRGHFSENETRLIIQSLASAIAYLHNKDIVHRDLKLENIMVKSSFIDDNNEMNLNIKVTDFGLSVQKHGSRSEGMMQTTCGTPIYMAPEVINAHDYSQQCDIWSIGVIMFILLCGEPPFLANSEEKLYELIKKGELRFENPVWESVSDSAKNTLKQLMKVDPAHRITAKELLDNQWLTGNTLSSARPTNVLEMMKEWKNNPESDEETNTDEETEQSAVYSPSANTAKQPTNAAKKPAAESVGMTSSNSSSSKLLSAESKAEPEKSSETVGHASVAKTTLKSTTLFRGKKRL	soluble
MSLMFHVVDDSEMLREMLVDMIEIYDCNVMTFASASEYLEYVRSDAFKAPSAVLTDVHMPQMSGYEMMEQVLAIDPSIRFAILSGEPDIPARYQDKVCLFLGKPYTGDQIQNMIYIFKQCELNSASEGHHHHHH	soluble
MLGKDYMLAIILVNCDDDLWGDHSLEVEAGLPPGWRKIHDAAGTYYWHVPSGSTQWQRPTWELGDAEDPGTGTEGIWGLRPPKGRSFSSLESSLDRSNSLSWYGGESYIQSMEPGAKCFAVRSLGWVEVPEEDLAPGKSSIAVNNCIQQLAQTRSRSQPPDGAWGEGQNMLMILKKDAMSLVNPLDHSLIHCQPLVHIRVWGVGSSKGRDRDFAFVASDKDSCMLKCHVFCCDVPAKAIASALHGLCAQILSERVEVSGDASCCSPDPISPEDLPRQVELLDAVSQAAQKYEALYMGTLPVTKAMGMDVLNEAIGTLTARGDRNAWVPTMLSVSDSLMTAHPIQAEASTEEEPLWQCPVRLVTFIGVGRDPHTFGLIADLGRQSFQCAAFWCQPHAGGLSEAVQAACMVQYQKCLVASAARGKAWGAQARARLRLKRTSSMDSPGGPLPLPLLKGGVGGAGATPRKRGVFSFLDAFRLKPSLLHMP	soluble
MSLMKCLLVSSVEGYSGKSGIIIALGLKLREMGYEVGYFKALGVNTVKVGDRAVEEDSLITAKILGVEEDVCPVVLDRPYIDFATSVDPVVLRKAVLDRFTEVSEGKDVVIVEGSQNYRTGVAVGIDDASVAKMLSAKVLLVGKYVNDFVVDEVLAAKSAFGTMLEKVVFNQVSGYKMSYIEGIARKVLNEAGLDIVGAIPRNPVLAGLSVEEIREAVSGEYLIEPREEKMVEQVVIGAMSPQSALRYLREARNAALVTGGDRSDLLLTALEMPNVRCLILTGNLEPVQLVLTKAEERGVPVILTGHDTLTAVSRLESVFGRTRIRGEPKVGIMRELFESHVNVKTIIEYLGLDEGHHHHHH	soluble
MLTMKDVIREGDPILRNVAEEVVIPASEEDTNTLKEMIEFVINSQDPEMAEKYSLRPGIGLAAPQIGISKKMIAVHVTDTDGTLYSHALFNPKIISHSVERTYLQSGEGCLSVDREVPGYVPRYTRITVKATSINGEEVKLRLKGLPAIVFQHEIDHLNGVMFYDHINKENPFAAPDGSKPLER	not soluble
MKLQQLRYIVEVVNHNLNVSSTAEGLYTSQPGISKQVRMLEDELGIQIFARSGKHLTQVTPAGQEIIRIAREVLSKVDAIKSVAGEHTWPDKGSLYVATTHTQARYALPGVIKGFIERYPRVSLHMHQGSPTQIAEAVSKGNADFAIATEALHLYDDLVMLPCYHWNRSIVVTPEHPLATKGSVSIEELAQYPLVTYTFGFTGRSELDTAFNRAGLTPRIVFTATDADVIKTYVRLGLGVGVIASMAVDPVSDPDLVKLDANGIFSHSTTKIGFRRSTFLRSYMYDFIQRFAPHLTRDVVDTAVALRSNEDIEAMFKDIKLPEK	soluble
MSLIDLKPKVERVDAIQSFVSQETPIVTIHDSDGASGTGYSYTIGTGGPSVMALLEQTLVPALIGKDADRIDGIWRDLLFLTHATAVGPITSLALAAIDIALWDLRCKKMGLPLWKAAGGSRDRIPLYSTEGGWLHLETAALVEDALAMKEQGFRGSKIKIGRAHLSEDRARLGAIRAAVGDSYEIMTDANQGFTLSEAIRRAKVLEEFGIGWFEEPLPADDVLSHQELSRRTHVPIAVGESMYSLSQFKDYLQVGAAQIVQVDVARIGGITPWLKVAHLAEAHSVMVCPHFLMELHLPLVCAVPNAKWLEYIPQLDGVTRQNMQISNGDAVPSDEPGLGIDWDWDAITAQEIGARSIGGAEGHHHHHH	not soluble
MSLKTLIKNVHILTMDEQFSEIKAGYLVIEEDTIVELAPMTTLDEKRMAANQVIDGQNGILMPGMINTHTHVGMIPFRSLGDDVPDRLRRFLFPLEQFMTKELVGCSSDYAIAEMLLSGITSFCDMYYFEDEIAKSCEKMSVRALLGETIIDMPTCDSPEPSGGLFYAETFIRKWQGHPLITPMLAPHAPNTNSPEVLAKIIELSRQYQVPVTMHVAEMTYEMAEFEKAYQKTPIAFLEELGYLSEPFILAHCILATDEDLASLAATNGKARVAHCIGANTKSAKGVAPIKQMLDQGIIVGLGTDGPSSGNTLDLFTQMRMVANFHKTAHQDRSLFPAKEIVYLATMGGAKTLGLAEQVGSLEVDKKADITLIETQSVNMFPIFDAYSALVYSANASNVEAVWVNGQQLVANKELQQANLKEIKEKLYQAMNTFVKEAKKRAALEGHHHHHH	soluble
MSSEKEYVEMLDRLYSKLPEKGRKEGTQSLPNMIILNIGNTTIIRNFAEYCDRIRREDKICMKYLLKELAAPGNVDDKGELVIQGKFSSQVINTLMERFLKAYVECSTCKSLDTILKKEKKSWYIVCLACGAQTPVKPL	soluble
MGHHHHHHSHSAAKGTGITRKKTFKEVANAVKISASLMGTVMAKRVKATILYGSETGRAQSYAQQLGRLFRKAFDPRVLCMDEYDVVSLEHETLVLVVTSTFGNGDPPENGESFAAALMEMSGPYN	not soluble
